Paper PMC10397247
One block for each binder: values may come before it.

What was measured:
[1] = molecular target: T1, 4H953-bA; assay: two-hybrid library CCNG1;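 also: natural log of median RNA to DNA barcode read ratio; higher means stronger binding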
T1 chain: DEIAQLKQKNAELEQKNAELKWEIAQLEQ

[2] = molecular target: T2, 4H683-bA; assay: two-hybrid library CCNG1;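 also: natural log of median RNA to DNA barcode read ratio; higher means stronger binding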
T2 chain: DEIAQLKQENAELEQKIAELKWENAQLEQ

[3] = molecular target: T3, 4H346-bA; assay: two-hybrid library CCNG1;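 also: natural log of median RNA to DNA barcode read ratio; higher means stronger binding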
T3 chain: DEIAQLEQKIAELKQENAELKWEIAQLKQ

[4] = molecular target: T4, 4H754-bA; assay: two-hybrid library CCNG1;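 also: natural log of median RNA to DNA barcode read ratio; higher means stronger binding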
T4 chain: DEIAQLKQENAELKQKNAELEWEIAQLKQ

[5] = molecular target: T5, 4H2697-bA; assay: two-hybrid library CCNG1;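 also: natural log of median RNA to DNA barcode read ratio; higher means stronger binding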
T5 chain: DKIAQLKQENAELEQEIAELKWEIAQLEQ

[6] = molecular target: T6, 4H780-bA; assay: two-hybrid library CCNG1;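 also: natural log of median RNA to DNA barcode read ratio; higher means stronger binding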
T6 chain: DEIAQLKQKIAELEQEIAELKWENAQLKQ

[7] = molecular target: T7, 4H855-bA; assay: two-hybrid library CCNG1
T7 chain: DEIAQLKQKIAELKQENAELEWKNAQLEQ

[8] = molecular target: T8, 4H2586-bA; assay: two-hybrid library CCNG1
T8 chain: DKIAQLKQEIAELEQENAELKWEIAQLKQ

[9] = molecular target: T9, 4H3926-bA; assay: two-hybrid library CCNG1
T9 chain: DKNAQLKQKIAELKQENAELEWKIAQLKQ

[10] = molecular target: T10, 4H797-bA; assay: two-hybrid library CCNG1
T10 chain: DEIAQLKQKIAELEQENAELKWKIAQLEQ

[11] = molecular target: T11, 4H3427-bA; assay: two-hybrid library CCNG1
T11 chain: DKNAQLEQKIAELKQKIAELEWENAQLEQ

[12] = molecular target: T12, 4H2627-bA; assay: two-hybrid library CCNG1
T12 chain: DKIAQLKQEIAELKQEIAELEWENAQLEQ

[13] = molecular target: T13, 4H918-bA; assay: two-hybrid library CCNG1
T13 chain: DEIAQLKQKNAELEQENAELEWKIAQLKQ

[14] = molecular target: T14, 4H2702-bA; assay: two-hybrid library CCNG1
T14 chain: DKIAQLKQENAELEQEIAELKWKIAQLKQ

[15] = molecular target: T15, 4H457-bA; assay: two-hybrid library CCNG1
T15 chain: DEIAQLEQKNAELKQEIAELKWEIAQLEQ

[16] = molecular target: T16, 4H3112-bA; assay: two-hybrid library CCNG1
T16 chain: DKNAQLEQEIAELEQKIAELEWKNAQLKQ

[17] = molecular target: T17, 4H1831-bA; assay: two-hybrid library CCNG1
T17 chain: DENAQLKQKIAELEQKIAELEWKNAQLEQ

[18] = molecular target: T18, 4H575-bA; assay: two-hybrid library CCNG1
T18 chain: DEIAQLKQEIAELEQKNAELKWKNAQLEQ

[19] = molecular target: T19, 4H3112-bH; assay: two-hybrid library CCNG1
T19 chain: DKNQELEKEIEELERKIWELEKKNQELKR

[20] = molecular target: T20, 4H2673-bA; assay: two-hybrid library CCNG1
T20 chain: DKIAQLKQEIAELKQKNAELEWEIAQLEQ

[21] = molecular target: T21, 4H4073-bA; assay: two-hybrid library CCNG1
T21 chain: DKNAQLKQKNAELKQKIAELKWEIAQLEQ

[22] = molecular target: T22, 4H968-bA; assay: two-hybrid library CCNG1
T22 chain: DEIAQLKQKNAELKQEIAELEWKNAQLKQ

[23] = molecular target: T23, 4H3010-bA; assay: two-hybrid library CCNG1
T23 chain: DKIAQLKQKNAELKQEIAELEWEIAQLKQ

[24] = molecular target: T24, 4H3907-bA; assay: two-hybrid library CCNG1
T24 chain: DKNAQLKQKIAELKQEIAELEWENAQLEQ

[25] = molecular target: T25, 4H4038-bA; assay: two-hybrid library CCNG1
T25 chain: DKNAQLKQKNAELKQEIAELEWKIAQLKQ

[26] = molecular target: T26, 4H3601-bA; assay: two-hybrid library CCNG1
T26 chain: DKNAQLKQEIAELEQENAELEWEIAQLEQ

[27] = molecular target: T27, 4H3907-bH; assay: two-hybrid library CCNG1
T27 chain: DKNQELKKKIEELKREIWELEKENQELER

[28] = molecular target: T28, 4H3601-bH; assay: two-hybrid library CCNG1
T28 chain: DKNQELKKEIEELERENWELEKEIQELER

[29] = molecular target: T29, 4H797-bH; assay: two-hybrid library CCNG1
T29 chain: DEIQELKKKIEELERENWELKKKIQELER

[30] = molecular target: T30, 4H4038-bH; assay: two-hybrid library CCNG1
T30 chain: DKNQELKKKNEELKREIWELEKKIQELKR

[31] = molecular target: T31, 4H883-bN; assay: two-hybrid library CCNG1
T31 chain: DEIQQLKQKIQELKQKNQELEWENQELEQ

[32] = molecular target: T32, O13-bP; assay: two-hybrid library CCNG1
T32 chain: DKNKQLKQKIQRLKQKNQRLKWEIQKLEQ

[33] = molecular target: T33, 4H918-bN; assay: two-hybrid library CCNG1
T33 chain: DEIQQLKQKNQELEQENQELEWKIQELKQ

[34] = molecular target: T34, 4H908-bN; assay: two-hybrid library CCNG1
T34 chain: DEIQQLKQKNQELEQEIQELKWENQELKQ

[35] = molecular target: T35, 4H754-bN; assay: two-hybrid library CCNG1
T35 chain: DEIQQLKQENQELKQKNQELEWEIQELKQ

[36] = molecular target: T36, 4H797-bN; assay: two-hybrid library CCNG1
T36 chain: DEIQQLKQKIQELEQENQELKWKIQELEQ

[37] = molecular target: T37, 4H967-bN; assay: two-hybrid library CCNG1
T37 chain: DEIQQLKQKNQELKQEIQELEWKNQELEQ

[38] = molecular target: T38, 4H953-bN; assay: two-hybrid library CCNG1
T38 chain: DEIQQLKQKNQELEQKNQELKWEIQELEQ

[39] = molecular target: T39, 4H72-bN; assay: two-hybrid library CCNG1
T39 chain: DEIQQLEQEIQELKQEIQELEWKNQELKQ

[40] = molecular target: T40, 4H3001-AA; assay: two-hybrid library CCmax; conditions: mean of both orientations
T40 chain: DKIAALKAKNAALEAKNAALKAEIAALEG

[41] = molecular target: T41, 4H2504-AA; assay: two-hybrid library CCmax
T41 chain: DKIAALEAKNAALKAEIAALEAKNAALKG

[42] = molecular target: T42, 4H688-AA; assay: two-hybrid library CCmax; conditions: mean of both orientations
T42 chain: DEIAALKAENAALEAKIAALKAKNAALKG

[43] = molecular target: T43, 4H376-AA; assay: two-hybrid library CCmax; conditions: mean of both orientations
T43 chain: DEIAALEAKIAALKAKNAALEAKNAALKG

[44] = molecular target: T44, 4H347-AA; assay: two-hybrid library CCmax; conditions: mean of both orientations
T44 chain: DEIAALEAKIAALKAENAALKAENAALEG

[45] = molecular target: T45, 4H3340-AA; assay: two-hybrid library CCmax
T45 chain: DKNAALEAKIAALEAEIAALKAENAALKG

[46] = molecular target: T46, 4H2611-AA; assay: two-hybrid library CCmax; conditions: mean of both orientations
T46 chain: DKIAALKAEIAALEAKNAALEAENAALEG

[47] = molecular target: T47, 4H3493-AA; assay: two-hybrid library CCmax; conditions: mean of both orientations
T47 chain: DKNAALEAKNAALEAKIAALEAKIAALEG

[48] = molecular target: T48, 4H2774-AA; assay: two-hybrid library CCmax; conditions: mean of both orientations
T48 chain: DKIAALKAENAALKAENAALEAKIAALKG

[49] = molecular target: T49, 4H2592-AA; assay: two-hybrid library CCmax
T49 chain: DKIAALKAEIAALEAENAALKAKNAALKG

[50] = molecular target: T50, 4H3381-AA; assay: two-hybrid library CCmax; conditions: mean of both orientations
T50 chain: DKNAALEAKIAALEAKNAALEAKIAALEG

[51] = molecular target: T51, 4H963-AA; assay: two-hybrid library CCmax; conditions: mean of both orientations
T51 chain: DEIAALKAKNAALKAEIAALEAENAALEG

[52] = molecular target: T52, 4H406-AA; assay: two-hybrid library CCmax; conditions: mean of both orientations
T52 chain: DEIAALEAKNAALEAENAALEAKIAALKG

[53] = molecular target: T53, 4H932-bA; assay: two-hybrid library CCNG1
T53 chain: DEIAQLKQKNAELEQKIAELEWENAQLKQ

[54] = molecular target: T54, 4H949-bA; assay: two-hybrid library CCNG1
T54 chain: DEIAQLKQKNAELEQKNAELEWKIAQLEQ

[55] = molecular target: T55, P1bHq; assay: two-hybrid library CCNG1
T55 chain: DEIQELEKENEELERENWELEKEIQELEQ

[56] = molecular target: T56, 4H949-bN; assay: two-hybrid library CCNG1
T56 chain: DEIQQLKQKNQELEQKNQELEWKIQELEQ

[57] = molecular target: T57, 4H3297-bN; assay: two-hybrid library CCNG1
T57 chain: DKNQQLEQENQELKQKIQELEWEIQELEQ

[58] = molecular target: T58, 4H3381-bN; assay: two-hybrid library CCNG1
T58 chain: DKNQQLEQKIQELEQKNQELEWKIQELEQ

[59] = molecular target: T59, 4H3041-bN; assay: two-hybrid library CCNG1
T59 chain: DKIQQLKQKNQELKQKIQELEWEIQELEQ

[60] = molecular target: T60, 4H349-bN; assay: two-hybrid library CCNG1
T60 chain: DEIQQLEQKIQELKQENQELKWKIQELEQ

[61] = molecular target: T61, 4H932-bN; assay: two-hybrid library CCNG1
T61 chain: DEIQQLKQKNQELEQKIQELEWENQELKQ

[62] = molecular target: T62, 4H56-bN; assay: two-hybrid library CCNG1
T62 chain: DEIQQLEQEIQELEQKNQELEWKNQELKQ

[63] = molecular target: T63, 4H3364-bN; assay: two-hybrid library CCNG1
T63 chain: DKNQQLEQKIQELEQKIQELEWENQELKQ

[64] = molecular target: T64, 4H796-bN; assay: two-hybrid library CCNG1
T64 chain: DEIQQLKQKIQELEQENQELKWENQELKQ

[65] = molecular target: T65, 4H730-bN; assay: two-hybrid library CCNG1
T65 chain: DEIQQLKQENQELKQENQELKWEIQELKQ

- interaction score [1]: -0.824
- interaction score [2]: -1.5
- interaction score [3]: -0.307
- interaction score [4]: -0.649
- interaction score [5]: -1.55
- interaction score [6]: -1.1
- interaction score [7]: 0.246
- interaction score [8]: -0.446
- interaction score [9]: -0.904
- interaction score [10]: -0.44
- interaction score [11]: 0.113
- interaction score [12]: 1.11
- interaction score [13]: -0.817
- interaction score [14]: -0.589
- interaction score [15]: -0.519
- interaction score [16]: 0.716
- interaction score [17]: 0.937
- interaction score [18]: -0.581
- interaction score [19]: -0.386
- interaction score [20]: 0.133
- interaction score [21]: -0.475
- interaction score [22]: -0.46
- interaction score [23]: 0.376
Binder: DENAQLKQKIAELEQKIAELEWKNAQLEQ [4H1831-bA]

- interaction score [24]: -1.15
- interaction score [25]: -1.28
- interaction score [26]: -0.859
Binder: DKNAQLKQEIAELEQENAELEWEIAQLEQ [4H3601-bA]

- interaction score [27]: -0.759
- interaction score [28]: -1.34
- interaction score [29]: -1.38
- interaction score [30]: -1.44
Binder: DKNQELKKEIEELERENWELEKEIQELER [4H3601-bH]

- interaction score [31]: 0.619
- interaction score [32]: -0.283
- interaction score [33]: 0.713
- interaction score [34]: -0.234
- interaction score [35]: -1.48
- interaction score [36]: 0.632
- interaction score [37]: -0.25
- interaction score [38]: -0.727
- interaction score [39]: 0.334
Binder: DEIQQLEQEIQELKQEIQELEWKNQELKQ [4H72-bN]

- interaction score [40]: -1.38
- interaction score [41]: -0.729
- interaction score [42]: 0.978
- interaction score [43]: -1.78
- interaction score [44]: -1.77
- interaction score [45]: -1.51
- interaction score [46]: -2.59
- interaction score [47]: -1.14
- interaction score [48]: -1.42
- interaction score [49]: -1.07
- interaction score [50]: -0.947
- interaction score [51]: -0.737
- interaction score [52]: 0.644
Binder: DKIAALEAKNAALKAEIAALEAKNAALKG [4H2504-AA]

- interaction score [53]: 0.694
- interaction score [54]: -0.925
- interaction score [55]: -0.886
Binder: DEIAQLKQKNAELEQKIAELEWENAQLKQ [4H932-bA]

- interaction score [56]: -1.33
- interaction score [57]: -2.23
- interaction score [58]: -1.06
- interaction score [59]: 0.754
- interaction score [60]: -1.54
- interaction score [55]: 0.154
- interaction score [61]: -1.42
- interaction score [62]: -0.997
- interaction score [63]: -1.42
- interaction score [64]: -1.35
- interaction score [65]: -1.37
Binder: DKIQQLKQKNQELKQKIQELEWEIQELEQ [4H3041-bN]
